Broadly, the pKa is the pH at which an ionisable group is half protonated. As usually defined, the stoichiometry N is a count of units in the complex or per binding partner.

This note sets out measurements from PMC8716364, “A Redox-Sensitive Cysteine Is Required for PIN1At Function” (Frontiers in Plant Science, 2021).

For data set [1], the target named is Cys69 (UniProt position 69, TRVSDCSSAKR). In words: chemical modification. The settings on record: 25 °C; sodium citrate or phosphate buffer (concentration not stated); reduced (DTT-treated and desalted), free enzyme, monomer.
Data set [2] deals with the molecule itself. The data set can be described thus: non-reducing SDS-PAGE after alkylation with mPEG-maleimide; 20 μM reduced PIN1At with 25- or 100-fold excess H2O2 (500 μM or 2 mM), 30 min, TE buffer; one sample then 10 mM DTT 30 min; free thiols alkylated with 2 kDa mPEG-maleimide, non-reducing 15% SDS-PAGE.
Data set [3] concerns the molecule itself. In words: SEC-MALS; 76 μM (300 μg) reduced PIN1At incubated 30 min with 100 μM to 2.5 mM H2O2, 30 mM Tris-HCl pH 8.0, 200 mM NaCl, Superdex200 10/300; disulfide-bridged dimer. A general note: SEC sorts molecules by how far they enter the pores of the column.

Take “PIN1At (PAR1), peptidyl-prolyl cis-trans isomerase Pin1, single-domain parvulin (Arabidopsis thaliana)”: the pKa in data set [1] is given as 4.9±0.1.

B1: Arabidopsis PIN1At, N-terminal His-tagged recombinant protein (enzyme, Arabidopsis thaliana, UniProt Q9SL42 1-119, looked up)
chain: MASRDQVKASHILIKHQGSRRKASWKDPEGKIILTTTREAAVEQLKSIREDIVSGKANFEEVATRVSDCSSAKRGGDLGSFGRGQMQKPFEEATYALKVGDISDIVDTDSGVHIIKRTA
notes: also called His-tagged PIN1At; not shown: His6, N-terminal, kept
As to B1, the binding result in data set [2] is on record as “binds”.

B2: Arabidopsis PIN1At, untagged recombinant protein (enzyme, Arabidopsis thaliana, UniProt Q9SL42 2-119, looked up)
chain: ASRDQVKASHILIKHQGSRRKASWKDPEGKIILTTTREAAVEQLKSIREDIVSGKANFEEVATRVSDCSSAKRGGDLGSFGRGQMQKPFEEATYALKVGDISDIVDTDSGVHIIKRTA
notes: Single cysteine, Cys69; the printed masses (12.3 kDa, 12,882.7 Da; theoretical 13,014.7 Da) fit the untagged protein; also called PAR1; PIN1At/PAR1; source: E. coli BL21 (DE3) with pSBET, pET12a, purified (ammonium sulfate, ACA44 gel filtration, DEAE-Sephacel)
On to B2, for which the “stoichiometry N” value in data set [3] came to 2.
